Values belong to the binder of their own block, whether it stands above or below them.
Legend:
[1] = target: T1, Recombinant Human VCAM-1/CD106 Fc chimera protein (R&D Systems) (human, UniProt P19320 25-698); assay: BLI (BLItz), VCAM-1 Fc chimera immobilized on Anti-Penta-HIS biosensor, serial dilutions of PA nanofibers
T1 construct: Bought from R&D Systems; also called VCAM-1 protein; not shown: Fc part (and any linker or His tag) of the bought chimera is not described
T1 sequence (looked up): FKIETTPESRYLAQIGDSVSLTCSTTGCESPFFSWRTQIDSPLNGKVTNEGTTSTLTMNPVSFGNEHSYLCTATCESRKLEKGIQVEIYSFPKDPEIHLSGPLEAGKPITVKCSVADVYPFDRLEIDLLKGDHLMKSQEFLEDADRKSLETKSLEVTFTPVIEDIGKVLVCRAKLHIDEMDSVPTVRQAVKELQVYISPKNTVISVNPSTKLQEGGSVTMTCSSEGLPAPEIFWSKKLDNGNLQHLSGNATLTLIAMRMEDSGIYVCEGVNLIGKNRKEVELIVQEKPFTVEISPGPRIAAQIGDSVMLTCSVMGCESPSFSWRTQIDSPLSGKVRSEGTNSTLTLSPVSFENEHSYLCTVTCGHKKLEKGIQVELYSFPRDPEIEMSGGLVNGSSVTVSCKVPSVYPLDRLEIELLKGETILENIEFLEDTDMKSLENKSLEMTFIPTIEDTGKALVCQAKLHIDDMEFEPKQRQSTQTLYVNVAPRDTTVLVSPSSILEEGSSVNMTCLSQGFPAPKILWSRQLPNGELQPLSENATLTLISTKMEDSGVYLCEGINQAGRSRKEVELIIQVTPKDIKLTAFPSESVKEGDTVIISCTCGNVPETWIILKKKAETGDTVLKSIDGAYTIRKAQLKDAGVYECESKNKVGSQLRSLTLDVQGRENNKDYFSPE

[2] = target: T1, Recombinant Human VCAM-1/CD106 Fc …; assay: bio-layer interferometry (BLItz): VCAM-1 Fc chimera immobilised on an Anti-Penta-HIS biosensor, PA nanofibers in DPBS as analyte, 300 s association and 300 s dissociation

- Kd [1]: 280 nM
B1: VCAM-1 binding PA (C16V3A3E3GSGVHPKQH) nanofibers (peptide)
peptide: VVVAAAEEEGSGVHPKQH
HELM: PEPTIDE1{[CCCCCCCCCCCCCCCC(=O)[*:2]].V.V.V.A.A.A.E.E.E.G.S.G.V.H.P.K.Q.H.[am]}$$$$V2.0
SMILES: CCCCCCCCCCCCCCCC(=O)N[C@H](C(=O)N[C@H](C(=O)N[C@H](C(=O)N[C@@H](C)C(=O)N[C@@H](C)C(=O)N[C@@H](C)C(=O)N[C@@H](CCC(=O)O)C(=O)N[C@@H](CCC(=O)O)C(=O)N[C@@H](CCC(=O)O)C(=O)NCC(=O)N[C@@H](CO)C(=O)NCC(=O)N[C@H](C(=O)N[C@@H](Cc1c[nH]cn1)C(=O)N1CCC[C@H]1C(=O)N[C@@H](CCCCN)C(=O)N[C@@H](CCC(N)=O)C(=O)N[C@@H](Cc1c[nH]cn1)C(N)=O)C(C)C)C(C)C)C(C)C)C(C)C
notes: Peptide amphiphile, self-assembled into supramolecular nanofibers after annealing; tested as nanofibers, so the number of copies in one assembly is not defined; In the microfluidic assay it stood as a coating on lymphocytes; also called VCAMb PA; VCAM-1 targeting PA

- binding result [2]: no binding (tested: 100 µM)
B2: VCAMb-scr PA (C16V3A3E3GSGQHPHVK) nanofibers (peptide)
peptide: VVVAAAEEEGSGQHPHVK
HELM: PEPTIDE1{[CCCCCCCCCCCCCCCC(=O)[*:2]].V.V.V.A.A.A.E.E.E.G.S.G.Q.H.P.H.V.K.[am]}$$$$V2.0
SMILES: CCCCCCCCCCCCCCCC(=O)N[C@H](C(=O)N[C@H](C(=O)N[C@H](C(=O)N[C@@H](C)C(=O)N[C@@H](C)C(=O)N[C@@H](C)C(=O)N[C@@H](CCC(=O)O)C(=O)N[C@@H](CCC(=O)O)C(=O)N[C@@H](CCC(=O)O)C(=O)NCC(=O)N[C@@H](CO)C(=O)NCC(=O)N[C@@H](CCC(N)=O)C(=O)N[C@@H](Cc1c[nH]cn1)C(=O)N1CCC[C@H]1C(=O)N[C@@H](Cc1c[nH]cn1)C(=O)N[C@H](C(=O)N[C@@H](CCCCN)C(N)=O)C(C)C)C(C)C)C(C)C)C(C)C
notes: formed relatively short, closely packed fibers; also called scrambled control PA

- binding result [2]: no binding (tested: 100 µM)
B3: backbone PA (C16V3A3E3) nanofibers (peptide)
peptide: VVVAAAEEE
HELM: PEPTIDE1{[CCCCCCCCCCCCCCCC(=O)[*:2]].V.V.V.A.A.A.E.E.E.[am]}$$$$V2.0
SMILES: CCCCCCCCCCCCCCCC(=O)N[C@H](C(=O)N[C@H](C(=O)N[C@H](C(=O)N[C@@H](C)C(=O)N[C@@H](C)C(=O)N[C@@H](C)C(=O)N[C@@H](CCC(=O)O)C(=O)N[C@@H](CCC(=O)O)C(=O)N[C@@H](CCC(=O)O)C(N)=O)C(C)C)C(C)C)C(C)C
notes: Peptide amphiphile without targeting moiety, self-assembled into nanofibers; also called filler PA; non-bioactive backbone PA

Reference: patent publication US20220009996A1 (NORTHWESTERN UNIVERSITY, published 2022)
